Experimental data as given in patent US7504234B2, “Assays for S-adenosylmethionine (AdoMet)-dependent methyltransferase activity” (The Regents of the University of Michigan, priority 2006, dated 2009).

T1: hSET8 (Homo sapiens, UniProt Q9NQR1)
T1 construct: A construct of hSET8 encoding residues 191-352 was cloned into the parallel expression vector pHIS2; hexahistidine tag with TEV cleavage site (pHIS2 vector) (N); made in house; host or cells: Escherichia coli BL21 (DE3) Codon Plus RIL
T1 sequence (Q9NQR1 191-352 isoform Q9NQR1-2): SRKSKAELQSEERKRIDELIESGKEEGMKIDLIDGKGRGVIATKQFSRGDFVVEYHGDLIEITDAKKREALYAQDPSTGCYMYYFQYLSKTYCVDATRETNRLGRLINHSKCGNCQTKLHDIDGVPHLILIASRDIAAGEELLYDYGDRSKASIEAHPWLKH


How the values were obtained:
[1] = biological target: T1, hSET8; experiment: isothermal titration calorimetry, wild-type and mutant histone H4 peptides with hSET8; assay type: binding; details: ITC; for histone H4 binding / affinity of hSET8 for mutant histone H4 peptide: 20° C., pH 7.0, saturating AdoHcy; for AdoHcy binding: hSET8 with His-18 mutant H4 peptide
Description: The equilibrium dissociation constants of wild type and mutants of hSET8 and histone H4 were determined using a VP-ITC calorimeter (MicroCal, LLC). […] A saturating concentration of AdoHcy (1.0-2.0 mM) was used in all titrations. ITC data were subsequently analyzed using Origin 7.0 (OriginLab Corp.) with blank injections of ligand into buffer subtracted from the experimental titrations prior to data analysis.

[2] = test system: their cognate substrates; details: radiometric assay, literature values; cited from earlier work
[3] = test system: Lys-20 in histone H4; experiment: MALDI mass spectrometry of methyltransferase reactions (product specificity); assay type: biochemical
Description: Histone methyltransferase assays were performed with wildtype hSET8 and the Tyr-245 and Tyr-334 mutants (5 μM) as described above and were quenched after 15 min or 24 h by the addition of 0.5% trifluoroacetic acid. Aliquots of the samples were cocrystallized with α-cyano-4-hydroxycinnamic acid (1:1), applied on the target, and dried at room temperature. The mass spectra were acquired on the TofSpec 2E MALDI-TOF mass spectrometer (Waters, Inc.) in reflectron mode, with each spectrum representing the average of 50 laser shots. Close external calibration was used based on the following mixture: bradikinin fragment 1-8, m/z=904.41 (for [M+H]+); angiotensin II, m/z=1046.54; [Glul]-fibrinopeptide B, m/z=1570.68; ACTH (clip 18-39), m/z=2465.20.

Molecule | histone H4 binding / affinity of hSET8 for mutant histone H4 peptide [1] | AdoHcy binding [1] | turnover number [2] [s⁻¹] | also measured
mouse G9A: histone H3 Lys-9/27 methyltransferase (protein, UniProt Q9Z148 1-1263, looked up) Histone-lysine …: MRGLPRGRGLMRARGRGRAAPTGGRGRGRGGAHRGRGRPRSLLSLPRAQASWAPQLPAGLTGPPVPCLPSQGEAPAEMGALLLEKEPRGAAERVHSSLGDTPQSEETLPKANPDSLEPAGPSSPASVTVTVGDEGADTPVGAASLIGDEPESLEGDGGRIVLGHATKSFPSSPSKGGACPSRAKMSMTGAGKSPPSVQSLAMRLLSMPGAQGAATAGPEPSPATTAAQEGQPKVHRARKTMSKPSNGQPPIPEKRPPEVQHFRMSDDMHLGKVTSDVAKRRKLNSGSLSEDLGSAGGSGDIILEKGEPRPLEEWETVVGDDFSLYYDAYSVDERVDSDSKSEVEALAEQLSEEEEEEEEEEEEEEEEEEEEEEEEEDEESGNQSDRSGSSGRRKAKKKWRKDSPWVKPSRKRRKREPPRAKEPRGVNGVGSSGPSEYMEVPLGSLELPSEGTLSPNHAGVSNDTSSLETERGFEELPLCSCRMEAPKIDRISERAGHKCMATESVDGELLGCNAAILKRETMRPSSRVALMVLCEAHRARMVKHHCCPGCGYFCTAGTFLECHPDFRVAHRFHKACVSQLNGMVFCPHCGEDASEAQEVTIPRGDGGTPPIGTAAPALPPLAHDAPGRADTSQPSARMRGHGEPRRPPCDPLADTIDSSGPSLTLPNGGCLSAVGLPPGPGREALEKALVIQESERRKKLRFHPRQLYLSVKQGELQKVILMLLDNLDPNFQSDQQSKRTPLHAAAQKGSVEICHVLLQAGANINAVDKQQRTPLMEAVVNNHLEVARYMVQLGGCVYSKEEDGSTCLHHAAKIGNLEMVSLLLSTGQVDVNAQDSGGWTPIIWAAEHKHIDVIRMLLTRGADVTLTDNEENICLHWASFTGSAAIAEVLLNAQCDLHAVNYHGDTPLHIAARESYHDCVLLFLSRGANPELRNKEGDTAWDLTPERSDVWFALQLNRKLRLGVGNRAVRTEKIICRDVARGYENVPIPCVNGVDGEPCPEDYKYISENCETSTMNIDRNITHLQHCTCVDDCSSSNCLCGQLSIRCWYDKDGRLLQEFNKIEPPLIFECNQACSCWRSCKNRVVQSGIKVRLQLYRTAKMGWGVRALQTIPQGTFICEYVGELISDAEADVREDDSYLFDLDNKDGEVYCIDARYYGNISRFINHLCDPNIIPVRVFMLHQDLRFPRIAFFSSRDIRTGEELGFDYGDRFWDIKSKYFTCQCGSEKCKHSAEAIALEQSRLARLDPHPELLPDLSSLPPINT |  |  | 0.024 | 
wild-type hSET8: construct of hSET8 encoding residues 191-352, catalytic SET domain (protein, UniProt Q9NQR1 191-352, looked up, fragment) AAIAKQALKKPIKGKQAPRKKAQGKTQQNRKLTDFYPVRRSSRKSKAELQSEERKRIDELIESGKEEGMKIDLIDGKGRGVIATKQFSRGDFVVEYHGDLIEITDAKKREALYAQDPSTGCYMYYFQYLSKTYCVDATRETNRLGRLINHSKCGNCQTKLHD |  |  |  | methylation state of Lys-20 after reaction with the H4 peptide ([3]; 24 h): complete conversion to monomethyl-Lys-20; product specificity ([3]; MALDI mass spectrometry): bona fide histone H4 Lys-20 monomethylase
Drosophila SU(VAR)3-9: H3 Lys-9-specific histone methyltransferase (protein, UniProt P45975 1-635, looked up) Histone-lysine …: MATAEAQIGVNRNLQKQDLSNLDVSKLTPLSPEVISRQATINIGTIGHVAHGKSTVVKAISGVQTVRFKNELERNITIKLERLSEKKIKNLLTSKQQRQQYEIKQRSMLRHLAELRRHSRFRRLCTKPASSSMPASTSSVDRRTTRRSTSQTSLSPSNSSGYGSVFGCEEHDVDKIPSLNGFAKLKRRRSSCVGAPTPNSKRSKNNMGVIAKRPPKGEYVVERIECVEMDQYQPVFFVKWLGYHDSENTWESLANVADCAEMEKFVERHQQLYETYIAKITTELEKQLEALPLMENITVAEVDAYEPLNLQIDLILLAQYRAAGSRSQREPQKIGERALKSMQIKRAQFVRRKQLADLALFEKRMNHVEKPSPPIRVENNIDLDTIDSNFMYIHDNIIGKDVPKPEAGIVGCKCTEDTEECTASTKCCARFAGELFAYERSTRRLRLRPGSAIYECNSRCSCDSSCSNRLVQHGRQVPLVLFKTANGSGWGVRAATALRKGEFVCEYIGEIITSDEANERGKAYDDNGRTYLFDLDYNTAQDSEYTIDAANYGNISHFINHSCDPNLAVFPCWIEHLNVALPHLVFFTLRPIKAGEELSFDYIRADNEDVPYENLSTAVRVECRCGRDNCRKVLF |  |  | 0.11 | 
human SET7/9: human histone H3 Lys-4-specific methyltransferase (protein, UniProt Q8WTS6 1-366, looked up) Histone-lysine …: MDSDDEMVEEAVEGHLDDDGLPHGFCTVTYSSTDRFEGNFVHGEKNGRGKFFFFDGSTLEGYYVDDALQGQGVYTYEDGGVLQGTYVDGELNGPAQEYDTDGRLIFKGQYKDNIRHGVCWIYYPDGGSLVGEVNEDGEMTGEKIAYVYPDERTALYGKFIDGEMIEGKLATLMSTEEGRPHFELMPGNSVYHFDKSTSSCISTNALLPDPYESERVYVAESLISSAGEGLFSKVAVGPNTVMSFYNGVRITHQEVDSRDWALNGNTLSLDEETVIDVPEPYNHVSKYCASLGHKANHSFTPNCIYDMFVHPRFGPIKCIRTLRAVEADEELTVAYGYDHSPPGKSGPEAPEWYQVELKAFQATQQK |  |  | 0.004 | 

More lines, main results first:

histone H4 binding / affinity of hSET8 for mutant histone H4 peptide [1] | AdoHcy binding [1] | Molecule | turnover number [2] [s⁻¹] | also measured
completely abolishes binding | severely abrogate AdoHcy binding | H18A: histone H4 peptide (residues 15-24) with His-18 mutated to alanine (Ac-AKRARKVLRD-NH2; UniProt P62805 16-25, looked up, variant H18A) |  | histone H4 binding / affinity of hSET8 for mutant histone H4 peptide ([1]; listed as His-18 to alanine): completely abolishes both histone H4 binding and methylation
modestly affects the affinity | severely abrogate AdoHcy binding | H18F: histone H4 peptide (residues 15-24) with His-18 mutated to phenylalanine (Ac-AKRFRKVLRD-NH2; UniProt P62805 16-25, looked up, variant H18F) |  | histone H4 binding / affinity of hSET8 for mutant histone H4 peptide ([1]; listed as His-18 to phenylalanine): does not impact the affinity to nearly the same extent as the H347F substitution
